Measurements reported in the supplement of paper PMC12042874.
± gives the uncertainty stated by the source.

Experiment: amyloid nucleation score (Sup35N fusion, yeast selection) (log enrichment); library NNK3; higher = more nucleation; inactive = no reads after selection
Summary of the method: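 Sup35N was fused to peptides of 20 random codons and expressed in psi-negative yeast, which were induced with 100 μM copper sulfate for 24 hours and then grown on medium lacking adenine and uracil for 7 days at 30°C. Plasmid inserts from input and output were sequenced on Illumina. The nucleation score is the DiMSum log enrichment of output over input reads, centred on the mode score of non-aggregating sequences. Sequences with under 100 input reads were left out, and random libraries had three technical output replicates.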

| Substance | amyloid nucleation score |
| --- | --- |
| SKFFQQPWL | inactive |
| TWTDCERRLDIVKEMLNYIQ | inactive |
| SNYSV | inactive |
| CIEWHAQGDFFLMICLYCPD | inactive |
| NVLLYNRKGQFSKCLCKSVD | inactive |
| NKAIILHVM | inactive |
| HCVRVASWGT | inactive |
| SVLSLLLCYRCSRL | -0.081 ± 0.98 |
| CTVGIYLLNLC | 2.45 ± 0.084 |
| WSFMYVYVC | 1.71 ± 0.06 |
| LVYNLNRKRGCKGVPVLRYS | inactive |
| IYSSCPFNLTSRMVGF | inactive |
| VGHFISYCNRIFSAKAIIVF | inactive |
| FMYSFDLWYKRLNCLMMLVF | inactive |
| TSCRLRV | inactive |
| IFIAKLENTVSRLFTFCFIM | inactive |
| NLSHDCPPGPAKARYYRNVK | inactive |
| NNLNQRYYTRHLQSGNLFCS | inactive |
| RMHDSCFLYGISEDRDSLGN | inactive |
| SFESVVYYSWRFVAKFKFWT | inactive |
| LYSVFVRRSCLNG | inactive |
| SFHTSGSNKGYCCGVMWMDK | inactive |
| CWDFKGFMMESLTNRSPYAS | inactive |

| Substance | amyloid nucleation score |
| --- | --- |
| IPFGLANSRFNVFASVMSDC | inactive |
| VLQLDL | inactive |
| LSMTGV | inactive |
| TCTCGVFSD | inactive |
| HIVPAVCT | inactive |
| CDIPFF | inactive |
| SYQLCACK | inactive |
| QTIRTMKRGNRISCVPAGHS | inactive |
| FLQECRDCQGTVRNKSSAP | inactive |
| IVIYLSHDKNLIQVRSSCEG | 2.59 ± 0.056 |
| IRYYFRHLG | -0.203 ± 0.36 |
| LAMHIALDSNRDKAFGVLNE | inactive |
| MLHLGTCEIILAYHHDMKML | inactive |
| DLDFFGGCLFFHQGTIFYDG | inactive |
| LFSMEKGEYGNRRGYAVYFL | 1.74 ± 0.084 |
| IRERGLYEMNPYWCRGRKSM | inactive |
| IAVCHLFLQYLCSRSTFMTL | inactive |
| DKWSWSVCNIRLSKSCNPVT | inactive |
| SSIGVGSFCSVRCLYDHDTS | inactive |
| DLNIVIPRIRAHRA | inactive |
| MDRIFWD | inactive |
| KAWETWAITTRSWKMFIRCL | 0.046 ± 0.96 |
| QLFMPGSVVTHRSYFTCMWL | 1.95 ± 0.064 |

| Substance | amyloid nucleation score |
| --- | --- |
| NSQKVIYKPFEAIYVTGTLT | inactive |
| IMIGKVLFFGVATRMSVLRL | inactive |
| GKYCLNDSCPFHY | inactive |
| VGDLLCPIASLGSRRNLWCR | inactive |
| TGLNGLRVLYSMRRPGKV | inactive |
| SLIGNSDSPWFLRQTCTYTK | inactive |
| HLYYAP | inactive |
| TSLVKRSALVFYTGTLIYPF | inactive |
| CIMFVFILLQYAFYIYILLV | inactive |
| IIVLPEKRPR | inactive |
| TWRYRKMYYRSDVNHCLFEV | inactive |
| GRLINYSILKMVTVWFYLL | inactive |
| NRACKLCSFKSGQRSNTMGF | inactive |
| MVNMTI | inactive |
| VFPYFELCVFLPSYFREAET | inactive |
| PSKPRTGQVGGVYHLCVVFW | inactive |
| RSIDGKSYNLAYLLGGLRNS | 2.56 ± 0.065 |
| TPTWFLRWWFTVSINNMVIW | inactive |
| ITGMVPWSSLESSRPGSLKR | inactive |
| FYNRPKWLFVLGPENILCDS | inactive |
| CGLRIRWSNVLYSRRTCGFT | inactive |
| YPLFECSDAPSQDNDTMLTR | inactive |
| IMSSVVYECFKVLRHSVMSG | inactive |

| Substance | amyloid nucleation score |
| --- | --- |
| DFSGVSLDVITRRCLGFIGA | inactive |
| YFYGLQWPCD | inactive |
| IALTWDSVIYSTYLGVNFLT | 0.627 ± 0.23 |
| QSLVPSFDPNLCQVGVLYCC | -0.654 ± 0.84 |
| NCLSPTCRSVL | 2.07 ± 0.097 |
| INYYFWTSGK | 0.731 ± 0.3 |
| ANHDVLADVCRLSRRGVLRR | inactive |
| ANSNRRECQHNS | 1.06 ± 0.16 |
| RAMLLGFSCMVWVPWGQFGK | 0.649 ± 0.22 |
| MMSTTKSRDNSIKDQLSGSS | inactive |
| VDLYV | inactive |
| IGTSAWLEKRASLLVCMKKA | inactive |
| QEYEGLRDSVKTVEGYVWLM | inactive |
| YSPTAN | inactive |
| SYVCWDIFIGQRSNAALSTI | inactive |
| LYSGFRGMPKYTDKNCMGRV | inactive |
| HYTTASFDVDNPLRLLLLLQ | inactive |
| GGTAHNIGCVSRLVMPARGI | inactive |
| SGQNKEQVVWMCTVRLPESS | inactive |
| FGQDSPSVLTC | -0.381 ± 0.7 |
| FSRFSNAFPKNCWVLLVENS | inactive |
| TDPFLTCK | inactive |
| LKVKLANR | inactive |

| Substance | amyloid nucleation score |
| --- | --- |
| CKSIPWVFYWFLLLYGYL | inactive |
| SCRFRVLRVFLGQTMYSSSI | inactive |
| VSGQKVSCMDE | inactive |
| TAFTGIRTWHCHCKRSYSLG | inactive |
| VTVSYIVNGMTSLFQVDVAS | inactive |
| GGARL | inactive |
| FYSTAMCGED | inactive |
| KRFTGSK | inactive |
| PVRIVLVKPGIFMLDVTYSP | inactive |
| LWQNSDLSSSDEYGQRFGKR | -0.706 ± 1 |
| NYLFRT | inactive |
| QSRMPCSLFILVNGDHDDMA | inactive |
| GWSYRDLTMVGVNELFV | inactive |
| DLSRTSAVSVRKRVCVFSLH | inactive |
| SLEIEK | inactive |
| IFVQAYLRGSEICALGDWRL | inactive |
| AKHGLVDAQRALGISYQKNK | 0.967 ± 0.11 |
| FWGFAFPFTSHGGPKNLEES | inactive |
| VFSGIL | inactive |
| AVISKDCDSYAIYHHVFHST | inactive |
| NGMGKRGQRSEESISQRSTG | inactive |
| SHCVSTT | inactive |
| YLINPVEVD | inactive |

| Substance | amyloid nucleation score |
| --- | --- |
| ISGIHITSELRRGTPERCSH | inactive |
| YLLVLMVERF | inactive |
| GCFDVPNCVSFQSFRACGKG | inactive |
| LWYGKYFFIDKRQA | 0.359 ± 0.23 |
| LSGSLTTISIITGGVDCD | inactive |
| YIALCLRYHTFLMKQEFHVG | inactive |
| FFSVGIKLDVFVWFWGEGHL | inactive |
| EMLGHHVGSLINRRVITVLR | inactive |
| LVVVR | inactive |
| FPWFTEASPPEMKLDK | 0.816 ± 0.23 |
| AFPCFIVY | inactive |
| VTAFATNKVC | inactive |
| NSWDYYVAWPFVRFG | -0.947 ± 0.98 |
| VFCSSDTAFPEGTTVSSRSR | inactive |
| NLCIWPVTDAHLSLMHYLTP | inactive |
| SAWVVFVVFFVSFDPDILFY | inactive |
| DGRSIEFIDGCDVYSICSRE | inactive |
| KTCIVCMLHL | 3.32 ± 0.068 |
| QPPAKSMWFSFDMLS | inactive |
| MISRSSNKGV | inactive |
| KFGVLRLVFSTLVSTLSRMV | inactive |
| NFLVRTPGRNERG | inactive |
| TVNLDQMYYMVFCVFRSMHD | 0.498 ± 0.43 |

| Substance | amyloid nucleation score |
| --- | --- |
| LSTIIHDFIGCCAVNAQLIG | inactive |
| LFTSFYVSPYM | inactive |
| GAGCNVVAAATARSRDGDWS | 0.212 ± 0.93 |
| LGHGFWQFSYLG | inactive |
| LRNSHGDDNVIRLVNNCNSV | inactive |
| VEGRCPLNH | inactive |
| PVLGSHRIVLSFDKIYLSRD | inactive |
| LYAQNLV | inactive |
| VHLGSFDFIFLNMSSTRSLG | inactive |
| YYLGSADGDPDIKWSLGYRK | inactive |
| SRVNFM | inactive |
| PMYVHRKDYKVVGSYMSTM | inactive |
| SNFINVGSRLMTSWRGYAYM | inactive |
| MVLCSKGIVNSARLAFKKSR | inactive |
| SKVWRYI | inactive |
| VHGVRV | inactive |
| HLNTSLETLKVLMVTQPTGN | inactive |
| HVSQTWLGRGADSGHWPRQG | 0.325 ± 0.46 |
| EVCWVSEWQLIVMRFSCTWL | inactive |
| RLLLMIL | inactive |
| SYLYLCRIKVDLPFWSDRLV | inactive |
| YLSASYIVYFIITEYYSYIF | inactive |
